The record followed here is publication PMC2154361.

The experiment concerns the target RIM1α C2B domain. In words: AUC.

Turning to RIM1α C2B domain (domain or fragment), the Kd (in general, a measure of binding affinity in units of concentration) was 90 µM and the stoichiometry N – broadly, a count of units in the complex or per binding partner – came out at 2.
